From patent US20260139033A1 (PRANA THERAPIES, published 2026)

Key:
[1] = molecular target: T1, recombinant human TSLP (human, UniProt Q969D9 29-159); test: SPR; column 'SPR (Biophysical binding): TSLP (pM)'
T1 construct: also called thymic stromal lymphopoietin
Experimental: (§1) SPR studies were carried out on a Biacore 3000 instrument with a CM5 chip at 25° C. The running buffer comprised 25 mM Hepes, pH 7.5, 150 mM NaCl, 0.5 mg/ml BSA, 0.005% P20. Antibodies were captured via protein A using approximately a 1/50 dilution of each antibody in the running buffer and a 2-minute contact time at a 10 μl/min flow rate. Protein A was immobilized on a CM5 chip via standard amine coupling chemistry in 10 mM acetate pH 4.5. Approximately 800 RU of each antibody was captured. The surfaces were regenerated via a 10 mM glycine pH 1.5 between cycles. Between assays the chip was regenerated with a 2-minute pulse of 100 mM Phosphoric acid. Prior to setting up multicycle kinetic analysis analyte concentration was determined spectrophotometrically using an extinction coefficient of 72,880 M⁻¹ cm⁻¹ for IL4R and 18450 M⁻¹ cm⁻¹ for the TSLP proteins respectively. Analyte samples were prepared by diluting stocks into running buffer to a final concentration of 500 nM for the IL-4R and 25 nM for TSLP followed by serially diluting with a 2-fold series with an association time of 2.5 minutes at a 50 μl/min flow rate. Dissociation data was collected for a period of 1600 seconds. Raw data was analyzed using the Scrubber2 (Biologic Software, AU) program using a double referencing procedure where compound signal is corrected to a blank surface and a buffer injection over the captured antibody surface. Kinetic data was analyzed by fitting to a simple 1:1 binding model. […] The candidates are further described in Table 3.

[2] = molecular target: IL-4R on human donor PBMC (B-cells) (human, UniProt P24394 26-825); test: cell-based or functional assay
[3] = molecular target: T1, recombinant human TSLP; test: cell-based or functional assay
[4] = molecular target: T1, recombinant human TSLP; test: SPR (Biacore 3000, CM5 chip, 25 C): complex captured via protein A, TSLP as analyte, 1:1 fit; column 'TSLP binding(pM)'
Experimental: as §1

B1: Candidate-24: Dupilumab-YTE_Linker-GS4_TSLP TRAP 2 (bispecific antibody, human IgG4 S228P, kappa)
heavy: EVQLVESGGGLEQPGGSLRLSCAGSGFTFRDYAMTWVRQAPGKGLEWVSSISGSGGNTYYADSVKGRFTISRDNSKNTLYLQMNSLRAEDTAVYYCAKDRLSITIRPRYYGLDVWGQGTTVTVSSASTKGPSVFPLAPCSRSTSESTAALGCLVKDYFPEPVTVSWNSGALTSGVHTFPAVLQSSGLYSLSSVVTVPSSSLGTKTYTCNVDHKPSNTKVDKRVESKYGPPCPPCPAPEFLGGPSVFLFPPKPKDTLYITREPEVTCVVVDVSQEDPEVQFNWYVDGVEVHNAKTKPREEQFNSTYRVVSVLTVLHQDWLNGKEYKCKVSNKGLPSSIEKTISKAKGQPREPQVYTLPPSQEEMTKNQVSLTCLVKGFYPSDIAVEWESNGQPENNYKTTPPVLDSDGSFFLYSRLTVDKSRWQEGNVFSCSVMHEALHNHYTQKSLSLSLGGGGGSGGGGSGGGGSGGGGSESGYAQNGDLEDAELDDYSFSCYSQLEVNGSQHSLTCAFEDPDVNITNLEFEICGALVEVKCLNFRKLQEIYFIETKKFLLIGKSNICVKVGEKSLTCKKIDLTTIVKPEAPFDLSVVYREGANDFVVTFNTSHLQKKYVKVLMHDVAYRQEKDENKWTHVNLSSTKLTLLQRKLQPAAMYEIKVRSIPDHYFKGFWSEWSPSYYFRTPEINNSSGEMDGGSGGSGGSGGSGGSGGSGGSGGSGGSGGSGGSGGSGGSGGSGGSGGSGGSGGSGGSGGSGAAEGVQIQIIYFNLETVQVTWNASKYSRTNLTFHYRFNGDEAYDQCTNYLLQEGHTSGCLLDAEQRDDILYFSIRNGTHPVFTASRWMVYYLKPSSPKHVRFSWHQDAVTVTCSDLSYGDLLYEVQYRSPFDTEWQSKQENTCNVTIEGLDAEKCYSFWVRVKAMEDVYGPDTYPSDWSEVTCWQRGEIRDACAETPTPPKPKLSK
light: DIVMTQSPLSLPVTPGEPASISCRSSQSLLYSIGYNYLDWYLQKSGQSPQLLIYLGSNRASGVPDRFSGSGSGTDFTLKISRVEAEDVGFYYCMQALQTPYTFGQGTKLEIKRTVAAPSVFIFPPSDEQLKSGTASVVCLLNNFYPREAKVQWKVDNALQSGNSQESVTEQDSKDSTYSLSSTLTLSKADYEKHKVYACEVTHQGLSSPVTKSFNRGEC
notes: The chains here are built from the component entries; TRAP sits at the C-terminus of the heavy chain
[1]
  Kd: 0.0168 nM
[2]
  IC50, upregulation of CD23 in response to IL-4 in PBMCs: 12.5 nM
[3]
  IC50, TARC secretion in response to TSLP in PBMCs: 4.3 nM
[4]
  Kd: 0.0168 nM

B2: Candidate-21: TSLP TRAP 1_Linker-GS4_Dupilumab-YTE (bispecific antibody, human IgG4 S228P, kappa)
heavy: GAAEGVQIQIIYFNLETVQVTWNASKYSRTNLTFHYRFNGDEAYDQCTNYLLQEGHTSGCLLDAEQRDDILYFSIRNGTHPVFTASRWMVYYLKPSSPKHVRFSWHQDAVTVTCSDLSYGDLLYEVQYRSPFDTEWQSKQENTCNVTIEGLDAEKCYSFWVRVKAMEDVYGPDTYPSDWSEVTCWQRGEIRDACAETPTPPKPKLSKGGSGGSGGSGGSGGSGGSGGSGGSGGSGGSGGSGGSGGSGGSGGSGGSGGSGGSGGSGGSESGYAQNGDLEDAELDDYSFSCYSQLEVNGSQHSLTCAFEDPDVNITNLEFEICGALVEVKCLNFRKLQEIYFIETKKFLLIGKSNICVKVGEKSLTCKKIDLTTIVKPEAPFDLSVVYREGANDFVVTFNTSHLQKKYVKVLMHDVAYRQEKDENKWTHVNLSSTKLTLLQRKLQPAAMYEIKVRSIPDHYFKGFWSEWSPSYYFRTPEINNSSGEMDGGGGSGGGGSGGGGSGGGGSEVQLVESGGGLEQPGGSLRLSCAGSGFTFRDYAMTWVRQAPGKGLEWVSSISGSGGNTYYADSVKGRFTISRDNSKNTLYLQMNSLRAEDTAVYYCAKDRLSITIRPRYYGLDVWGQGTTVTVSSASTKGPSVFPLAPCSRSTSESTAALGCLVKDYFPEPVTVSWNSGALTSGVHTFPAVLQSSGLYSLSSVVTVPSSSLGTKTYTCNVDHKPSNTKVDKRVESKYGPPCPPCPAPEFLGGPSVFLFPPKPKDTLYITREPEVTCVVVDVSQEDPEVQFNWYVDGVEVHNAKTKPREEQFNSTYRVVSVLTVLHQDWLNGKEYKCKVSNKGLPSSIEKTISKAKGQPREPQVYTLPPSQEEMTKNQVSLTCLVKGFYPSDIAVEWESNGQPENNYKTTPPVLDSDGSFFLYSRLTVDKSRWQEGNVFSCSVMHEALHNHYTQKSLSLSLG
light: DIVMTQSPLSLPVTPGEPASISCRSSQSLLYSIGYNYLDWYLQKSGQSPQLLIYLGSNRASGVPDRFSGSGSGTDFTLKISRVEAEDVGFYYCMQALQTPYTFGQGTKLEIKRTVAAPSVFIFPPSDEQLKSGTASVVCLLNNFYPREAKVQWKVDNALQSGNSQESVTEQDSKDSTYSLSSTLTLSKADYEKHKVYACEVTHQGLSSPVTKSFNRGEC
notes: TRAP sits at the N-terminus of the heavy chain
[1]
  Kd: 0.0208 nM
[2]
  IC50, IL-4 biological assay (CD23 upregulation in PBMCs): > 200 nM
[3]
  IC50, PBMC assay in response to TSLP (TARC secretion): 2.3 nM
[4]
  Kd: 0.0208 nM

B3: Candidate-22: TSLP TRAP 2_Linker-GS4_Dupilumab-YTE (bispecific antibody, human IgG4 S228P, kappa)
heavy: ESGYAQNGDLEDAELDDYSFSCYSQLEVNGSQHSLTCAFEDPDVNITNLEFEICGALVEVKCLNFRKLQEIYFIETKKFLLIGKSNICVKVGEKSLTCKKIDLTTIVKPEAPFDLSVVYREGANDFVVTFNTSHLQKKYVKVLMHDVAYRQEKDENKWTHVNLSSTKLTLLQRKLQPAAMYEIKVRSIPDHYFKGFWSEWSPSYYFRTPEINNSSGEMDGGSGGSGGSGGSGGSGGSGGSGGSGGSGGSGGSGGSGGSGGSGGSGGSGGSGGSGGSGGSGAAEGVQIQIIYFNLETVQVTWNASKYSRTNLTFHYRFNGDEAYDQCTNYLLQEGHTSGCLLDAEQRDDILYFSIRNGTHPVFTASRWMVYYLKPSSPKHVRFSWHQDAVTVTCSDLSYGDLLYEVQYRSPFDTEWQSKQENTCNVTIEGLDAEKCYSFWVRVKAMEDVYGPDTYPSDWSEVTCWQRGEIRDACAETPTPPKPKLSKGGGGSGGGGSGGGGSGGGGSEVQLVESGGGLEQPGGSLRLSCAGSGFTFRDYAMTWVRQAPGKGLEWVSSISGSGGNTYYADSVKGRFTISRDNSKNTLYLQMNSLRAEDTAVYYCAKDRLSITIRPRYYGLDVWGQGTTVTVSSASTKGPSVFPLAPCSRSTSESTAALGCLVKDYFPEPVTVSWNSGALTSGVHTFPAVLQSSGLYSLSSVVTVPSSSLGTKTYTCNVDHKPSNTKVDKRVESKYGPPCPPCPAPEFLGGPSVFLFPPKPKDTLYITREPEVTCVVVDVSQEDPEVQFNWYVDGVEVHNAKTKPREEQFNSTYRVVSVLTVLHQDWLNGKEYKCKVSNKGLPSSIEKTISKAKGQPREPQVYTLPPSQEEMTKNQVSLTCLVKGFYPSDIAVEWESNGQPENNYKTTPPVLDSDGSFFLYSRLTVDKSRWQEGNVFSCSVMHEALHNHYTQKSLSLSLG
light: DIVMTQSPLSLPVTPGEPASISCRSSQSLLYSIGYNYLDWYLQKSGQSPQLLIYLGSNRASGVPDRFSGSGSGTDFTLKISRVEAEDVGFYYCMQALQTPYTFGQGTKLEIKRTVAAPSVFIFPPSDEQLKSGTASVVCLLNNFYPREAKVQWKVDNALQSGNSQESVTEQDSKDSTYSLSSTLTLSKADYEKHKVYACEVTHQGLSSPVTKSFNRGEC
notes: The chains here are built from the component entries; TRAP sits at the N-terminus of the heavy chain
[1]
  Kd: 0.019 nM
[2]
  IC50, IL-4 biological assay (CD23 upregulation in PBMCs): > 200 nM
[3]
  IC50, PBMC assay in response to TSLP (TARC secretion): 0.43 nM
[4]
  Kd: 0.019 nM
